Reference: patent US20180194847A1 (SEOUL NATIONAL UNIVERSITY R AND DB FOUNDATION, published 2018)

Target: T1, recombinant human CD154 protein (human, UniProt P29965 47-261, limits assumed)
T1 construct: This protein was immobilised on the SPR chip; also called human CD154 antigen
T1 sequence: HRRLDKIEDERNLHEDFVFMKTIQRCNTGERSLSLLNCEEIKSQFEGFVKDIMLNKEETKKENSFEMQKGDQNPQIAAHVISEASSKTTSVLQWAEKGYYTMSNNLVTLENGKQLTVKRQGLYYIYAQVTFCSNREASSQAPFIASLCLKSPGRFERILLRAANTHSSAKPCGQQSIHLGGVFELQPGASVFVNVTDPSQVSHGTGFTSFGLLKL
Experiment: SPR (Reichert SR7500DC), CD154 immobilised on chip, antibody in flow
Procedure: The binding affinity KD of each of the RD-05 mouse antibody and IgG4 and IgG4 (L115E) RD-05 chimeric antibodies, produced as described above, for human CD154 antigen, was measured using an SPR method by Woojung BSC, Inc. (Suwon, Gyeonggi-do, Korea). Specifically, 17.5 μg/ml of recombinant human CD154 protein in immobilization buffer (10 mM sodium acetate, pH 6.0) was attached to a CMDH gold chip (Cat#13206066, Reichert Technologies, Depew, N.Y., USA) at a density of 2300 RU (resonance unit; 1 RU=1 pg/mm² surface area), after which 3.125 μg/ml of bovine serum albumin was attached at a density of 650 RU. The RD-05 antibody was diluted in PBS at […], 1.25, 2.5, 5, 10, 20, 40, 80, 160, 320, 2560 and 5120 nM. […] Based on the determined values, the KD values were calculated.

- Kd: 0.037 µM
B1: RD-05 mouse antibody (antibody, V domains shown)
VH: DVQLQESGPGLVKPSQSLSLTCTVTGYSITSDYAWNWIRQFPGNKLEWMGYITYSGTTSYNPSLKSRISLTRDTSKNQFFLQLNAVTTEDTATYYCARSPYYGPWYFDVWGAGTTVTVSS
VL: DIVLTQSPASLTVSLGQRATISCKASQSVDYDGDSYLHWYQQKPGQPPKLLIYAASYLESGIPARFSGSGSGTDFTLNIHPVEEEDAATYYCQQSNEDPNTFGGGTKLEIKR
notes: Mouse monoclonal antibody from the hybridoma, kappa light chain; also called mouse RD-05 antibody; anti-human CD154 antibody
